# Values of other authors in article PMC3245798.
# Target: SLAM (Homo sapiens) (UniProt Q13291)
# Details: cited from earlier work
# UniProt Q13291, sequence (Q13291 21-335): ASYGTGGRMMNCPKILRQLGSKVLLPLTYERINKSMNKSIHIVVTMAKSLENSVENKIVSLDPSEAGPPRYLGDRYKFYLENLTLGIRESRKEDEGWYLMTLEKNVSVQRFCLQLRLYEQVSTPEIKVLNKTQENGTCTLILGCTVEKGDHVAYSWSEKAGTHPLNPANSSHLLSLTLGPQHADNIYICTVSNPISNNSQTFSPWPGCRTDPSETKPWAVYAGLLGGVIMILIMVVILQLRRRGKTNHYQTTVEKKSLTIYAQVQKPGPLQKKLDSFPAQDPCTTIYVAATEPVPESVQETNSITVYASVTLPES
substance,measurement,value
measles virus hemagglutinin (H) (from UniProt P08362),Kd,80 nM
